Blank lines part the entries; values can stand above or below the molecule they belong to. Where no end group is shown, it is not given here.
Tested on: FGF-induced angiogenesis in the mouse cornea
Assay: Corneal pocket implant angiogenesis assay
Format: in vivo
Description: FIG. 13—Inhibition of corneal angiogenesis by SSTN. PolyHEMA pellets (0.25 μL) containing 67 ng FGF-2 and sucralfate were implanted into the avascular mouse cornea. Alzet pumps containing PBS, 2500 μM mS1ED or a range of SSTN concentrations (0-100 μM) were implanted subcutaneously on the back of the animals and angiogenesis for 7 days. Fluorescent dextran was injected suborbitally for 2 min prior to sacrifice for observation of the vascular system in dissected cornea (picture insets). Total angiogenesis is quantified as total length of vessels growing from the limbic vessels at the margin of the cornea.
A polyhydroxyethylmethacrylate (PolyHEMA) pellet 1 μl in volume containing 100 ng FGF was implanted into pockets surgically prepared in the center of the avascular corneas of 6 wk-old Balb/c mice. Three mice were used as controls and three mice received a 0.2 ml Alzet osmotic pump implanted subcutaneously on the back of the mice. The pump was loaded with 100 μM synstatin82-130 in sterile saline and delivers 1 μl into the mouse per hr. The mice were allowed to recover and were maintained for seven days. The extent of angiogenesis was recorded by digital camera images of the living mouse. Fluorescent dextran was then injected into the vascular via retro-orbital injection 1-2 minutes prior to sacrifice. Corneas were surgically removed, mounted on slides and the extent of vascularization observed via fluorescence microscopy.
To test the efficacy of synstatin82-130 in vivo, the inventors have used the mouse corneal pocket implant angiogenesis assay. Here, angiogenesis is induced in the avascular mouse cornea by implantation of a polyHEMA pellet containing fibroblast growth factor (FGF), which is a potent angiogenic agent. The FGF will induce angiogenic outgrowth of new vessels from the limbic vessels at the margin of the cornea into the avascular region at the center of the cornea where the pellet is implanted. The inventors have tested recombinant S1ED by supplying it along with the FGF in the pellet implanted into the cornea, and have also introduced it into the systemic circulation of the mouse through the use of an osmotic pump placed subcutaneously on the back of the animal. The latter protocol more closely mimics the manner in which such an inhibitor might be delivered as a drug in patients. […] The concentration necessary for the block in vivo has not yet been measured. […] However, this is likely to be a high estimate, as clearance and degradation are likely to occur, and the protein is likely to be present in the greater volume of the mouse than just the vascular system.
Lastly, SSTN was tested in the in vivo corneal angiogenesis assay. Polyhydroxyethylmethylacrylate pellets (0.25 μL) containing 67 ng FGF-2 and sucralfate as a slow release agent were implanted into the avascular mouse cornea. After seven days, fluorescent dextran was injected suborbitally to highlight the vascular system and the mice were sacrificed. […] To supply the inhibitor in a more quantifiable and physiological manner, recombinant mS1ED or SSTN were delivered systemically via Alzet osmotic pumps implanted subcutaneously on the backs of the animals. […] To correlate this with the active concentration in the plasma, the inventors took advantage of rabbit polyclonal antibodies generated against mS1ED, which detect active SSTN on dot blots. […] Using this method to detect active SSTN in the blood collected from animals after 1 week of SSTN treatment, SSTN is shown to be in the blood at 125-150 nM when present at 10 μM in the osmotic pump.

ill effects after one week of treatment (100 μM in osmotic pump, activity, eating, weight, behavior): no ill effects
estimated systemic concentration after 24 hr (100 μM in pump, same assumptions): ≤ 1.2 µM
Molecule: SNTETAFTSVLPAGEKPEEGEPVLHVEAEPGFTARDKEKEVTTRPRETV [synstatin82-130]

B1: S1ED: recombinant mouse Sdc1 ectodomain (amino acids 18-251), expressed in bacteria as GST fusion or 6×His-tagged protein (protein)
chain: QPALPQIVAVNVPPEDQDGSGDDSDNFSGSGTGALPDTLSRQTPSTWKDVWLLTATPTAPEPTSSNTETAFTSVLPAGEKPEEGEPVLHVEAEPGFTARDKEKEVTTRPRETVQLPITQRASTVRVTTAQAAVTSHPHGGMQPGLHETSAPTAPGQPDHQPPRVEGGGTSVIKEVVEDGTANQLPAGEGSGEQDFTFETSGENTAVAAVEPGLRNQPPVDEGATGASQSLLDRK
modifications: left off: a dimerising Fc or GST
notes: recombinant mouse Sdc1 ectodomain (amino acids 18-251), expressed in bacteria as GST fusion or 6×His-tagged protein
estimated systemic concentration after 24 hr (2.4 mM in pump, 1 μl per hour, assuming 2 ml blood volume, no degradation or clearance): approximately 29 μM
corneal angiogenesis (2500 μM in Alzet pump, 67 ng FGF-2 pellet, 7 days): nearly total block of angiogenesis
FGF-induced corneal angiogenesis (in the pellet with FGF or systemic via osmotic pump, 2.4 mM, 1 μl per hour): blocks the FGF-induced angiogenesis
corneal angiogenesis (incorporated into the pellet): reduced the angiogenesis
